{
  "source": "paper PMC10774645",
  "about": "“Characterization and stabilization of GluLm and its application to deglycosylate dietary flavonoids and lignans” (Applied Microbiology and Biotechnology, 2024)",
  "key": {"GluLm": {"biological_target": "T1, GluLm (Limosilactobacillus mucosae, UniProt A0A508YIL6)", "T1 construct": "gene bglB; full-length, C-terminal poly-His tag (pLATE31), expressed in E. coli BL21(DE3), GraviTrap purified, 81 kDa", "T1 sequence (A0A508YIL6 1-735)": "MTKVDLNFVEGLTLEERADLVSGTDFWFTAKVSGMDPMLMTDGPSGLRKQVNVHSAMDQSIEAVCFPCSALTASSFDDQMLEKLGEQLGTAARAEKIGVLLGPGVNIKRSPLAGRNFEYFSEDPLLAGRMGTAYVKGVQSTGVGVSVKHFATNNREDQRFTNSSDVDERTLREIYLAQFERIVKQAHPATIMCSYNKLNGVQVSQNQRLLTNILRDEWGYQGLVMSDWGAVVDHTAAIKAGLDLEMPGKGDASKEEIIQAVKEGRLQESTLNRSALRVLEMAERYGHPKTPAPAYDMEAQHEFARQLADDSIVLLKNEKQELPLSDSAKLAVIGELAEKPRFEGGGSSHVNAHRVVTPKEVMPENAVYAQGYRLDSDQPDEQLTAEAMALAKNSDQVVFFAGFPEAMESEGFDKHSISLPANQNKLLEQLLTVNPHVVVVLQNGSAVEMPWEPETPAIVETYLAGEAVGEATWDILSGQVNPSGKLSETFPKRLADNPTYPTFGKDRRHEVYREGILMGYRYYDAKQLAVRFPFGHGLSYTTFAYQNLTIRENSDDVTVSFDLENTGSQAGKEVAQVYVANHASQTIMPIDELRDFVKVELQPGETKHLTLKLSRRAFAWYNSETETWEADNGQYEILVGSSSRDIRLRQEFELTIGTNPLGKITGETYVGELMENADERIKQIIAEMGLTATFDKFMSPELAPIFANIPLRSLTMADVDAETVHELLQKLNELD", "assay": "inhibition of pNPG hydrolysis, p-nitrophenol release at […] nm", "type": "biochemical", "conditions": "100000 µM; free enzyme; 1 mmol L^−1 pNPG; 100 mmol L^−1 sodium phosphate pH 6.5; 37°C; 5 min"}, "purified protein [1]": {"substrate": "C[C@H]1O[C@@H](Oc2ccc([N+](=O)[O-])cc2)[C@H](O)[C@@H](O)[C@H]1O", "assay": "purified protein", "type": "biochemical, Limosilactobacillus mucosae", "conditions": "free enzyme; 0.1 to 10 mmol L^−1 substrate; pH and temperature not restated for kinetics"}, "purified protein [2]": {"substrate": "O=[N+]([O-])c1ccc(O[C@@H]2OC[C@@H](O)[C@H](O)[C@H]2O)cc1", "assay": "purified protein", "type": "biochemical, Limosilactobacillus mucosae", "conditions": "free enzyme; 0.1 to 10 mmol L^−1 substrate; pH and temperature not restated for kinetics"}, "purified protein [3]": {"substrate": "C[C@@H]1O[C@@H](Oc2ccc([N+](=O)[O-])cc2)[C@@H](O)[C@H](O)[C@@H]1O", "assay": "purified protein", "type": "biochemical, Limosilactobacillus mucosae", "conditions": "free enzyme; 0.1 to 10 mmol L^−1 substrate; pH and temperature not restated for kinetics"}, "purified protein [4]": {"substrate": "O=[N+]([O-])c1ccc(O[C@@H]2O[C@H](CO)[C@@H](O)[C@H](O)[C@H]2O)cc1", "assay": "purified protein", "type": "biochemical, Limosilactobacillus mucosae", "conditions": "free enzyme; 0.1 to 10 mmol L^−1 substrate; pH and temperature not restated for kinetics"}, "purified protein [5]": {"substrate": "O=[N+]([O-])c1ccc(O[C@@H]2O[C@H](CO)[C@H](O)[C@H](O)[C@H]2O)cc1", "assay": "purified protein", "type": "biochemical, Limosilactobacillus mucosae", "conditions": "free enzyme; 0.1 to 10 mmol L^−1 substrate; pH and temperature not restated for kinetics"}},
  "data": [
    {"molecule": "OC[C@H]1OC(O)[C@H](O)[C@@H](O)[C@@H]1O", "note": "(stereo partly drawn) [glucose]", "values": [
      {"measurement": "Relative activity (%)", "setting": "GluLm", "value": "48.3 ± 5.7", "unit": "%"}
    ]},
    {"molecule": "GluLm (Limosilactobacillus mucosae) (protein, full-length, C-terminal poly-His tag (pLATE31), expressed in E. coli BL21(DE3), GraviTrap purified, 81 kDa) MTKVDLNFVEGLTLEERADLVSGTDFWFTAKVSGMDPMLMTDGPSGLRKQVNVHSAMDQSIEAVCFPCSALTASSFDDQMLEKLGEQLGTAARAEKIGVLLGPGVNIKRSPLAGRNFEYFSEDPLLAGRMGTAYVKGVQSTGVGVSVKHFATNNREDQRFTNSSDVDERTLREIYLAQFERIVKQAHPATIMCSYNKLNGVQVSQNQRLLTNILRDEWGYQGLVMSDWGAVVDHTAAIKAGLDLEMPGKGDASKEEIIQAVKEGRLQESTLNRSALRVLEMAERYGHPKTPAPAYDMEAQHEFARQLADDSIVLLKNEKQELPLSDSAKLAVIGELAEKPRFEGGGSSHVNAHRVVTPKEVMPENAVYAQGYRLDSDQPDEQLTAEAMALAKNSDQVVFFAGFPEAMESEGFDKHSISLPANQNKLLEQLLTVNPHVVVVLQNGSAVEMPWEPETPAIVETYLAGEAVGEATWDILSGQVNPSGKLSETFPKRLADNPTYPTFGKDRRHEVYREGILMGYRYYDAKQLAVRFPFGHGLSYTTFAYQNLTIRENSDDVTVSFDLENTGSQAGKEVAQVYVANHASQTIMPIDELRDFVKVELQPGETKHLTLKLSRRAFAWYNSETETWEADNGQYEILVGSSSRDIRLRQEFELTIGTNPLGKITGETYVGELMENADERIKQIIAEMGLTATFDKFMSPELAPIFANIPLRSLTMADVDAETVHELLQKLNELD", "values": [
      {"measurement": "Km", "setting": "purified protein [1]", "value": "1030 ± 40", "unit": "µM"},
      {"measurement": "Vmax", "setting": "purified protein [1]", "value": 1.64, "unit": "µmol/min"},
      {"measurement": "kcat", "setting": "purified protein [1]", "value": 223, "unit": "s⁻¹"},
      {"measurement": "kcat/Km", "setting": "purified protein [1]", "value": 218000, "unit": "M⁻¹ s⁻¹"},
      {"measurement": "Km", "setting": "purified protein [2]", "value": "760 ± 50", "unit": "µM"},
      {"measurement": "Vmax", "setting": "purified protein [2]", "value": 4.07, "unit": "µmol/min"},
      {"measurement": "kcat", "setting": "purified protein [2]", "value": 552, "unit": "s⁻¹"},
      {"measurement": "kcat/Km", "setting": "purified protein [2]", "value": 729000, "unit": "M⁻¹ s⁻¹"},
      {"measurement": "Km", "setting": "purified protein [3]", "value": "2820 ± 240", "unit": "µM"},
      {"measurement": "Vmax", "setting": "purified protein [3]", "value": 0.06, "unit": "µmol/min"},
      {"measurement": "kcat", "setting": "purified protein [3]", "value": 7.8, "unit": "s⁻¹"},
      {"measurement": "kcat/Km", "setting": "purified protein [3]", "value": 2700, "unit": "M⁻¹ s⁻¹"},
      {"measurement": "Km", "setting": "purified protein [4]", "value": "100 ± 10", "unit": "µM"},
      {"measurement": "Vmax", "setting": "purified protein [4]", "value": 33.8, "unit": "µmol/min"},
      {"measurement": "kcat", "setting": "purified protein [4]", "value": 9120, "unit": "s⁻¹"},
      {"measurement": "kcat/Km", "setting": "purified protein [4]", "value": "8.66e+07", "unit": "M⁻¹ s⁻¹"},
      {"measurement": "Km", "setting": "purified protein [5]", "value": "2810 ± 180", "unit": "µM"},
      {"measurement": "Vmax", "setting": "purified protein [5]", "value": 0.86, "unit": "µmol/min"},
      {"measurement": "kcat", "setting": "purified protein [5]", "value": 117, "unit": "s⁻¹"},
      {"measurement": "kcat/Km", "setting": "purified protein [5]", "value": 41900, "unit": "M⁻¹ s⁻¹"}
    ]}
  ]
}
